Consider three molecules from US6916645B2, “Amylases” (Kao Corporation, priority 1998, dated 2005).

The nature of series [1]: Specific activity: amylase activity measuring method and protein assay kit. In kind it is biochemical. Conditions: pH 10 glycine sodium hydroxide buffer, 50° C., 15 minutes, soluble starch as substrate. The protocol:
In a test tube, 0.5 mL of the 1% aqueous solution of soluble starch, 0.2 mL of the 250 mM glycine sodium hydroxide buffer (pH 10) and 0.2 mL of deionized water (said mixture will hereinafter be called “substrate solution”) were charged, followed by preliminary heating for about 5 minutes in a water bath of 50° C. After preliminary heating, 0.1 ml of a properly diluted enzyme solution was added to the reaction mixture, followed by reaction at 50° C. for 15 minutes. After completion of the reaction, 1.0 mL of the DNS reagent was added to the reaction mixture, followed by color development by heating in boiling water for 5 minutes. Immediately after that, the solution was allowed to cool down in an ice-water bath. The resulting solution, after cooling, was added with 4.0 mL of deionized water, followed by mixing. The absorbance of the solution at 535 nm was then measured.
In a test tube, 0.9 mL of the substrate solution was charged, followed by the addition of 1.0 mL of the DNS reagent and then with 0.1 mL of an enzyme solution. The resulting mixture was heated in a boiling water for 5 minutes to cause color development. […] The absorbance of the solution at 535 nm was then measured.
In a test tube, 0.9 mL of the substrate solution was charged, followed by the addition of 1.0 mL of the DNS reagent and then with 0.1 mL of each of the glucose solutions for a calibration curve having various concentrations. […] The absorbance of the solution at 535 nm was then measured. On a graph, the glucose concentration (μmol/0.1 mL) was plotted as abscissa and the absorbance as ordinate and the slope of those linear plots was determined by the least square method. A conversion factor (F) was calculated in accordance with the following formula: Conversion Factor (F)=[1/(slope)]×[1/15]×[1000/0.1]
With the amount of the enzyme which formed reducing sugar equivalent to 1 μmol of glucose in one minute was defined as one unit (1U), the titer of the enzyme was calculated in accordance with the following formula: Activity of amylase (U/L)=[δ-absorbance]×[conversion factor (F)]×[dilution ratio] […]

Series [2] is described as follows: EDTA or EGTA resisting performance (residual enzyme activity). The class given is physicochemical. As to conditions: 0 to 100 mM EDTA or EGTA, pH 10, 30, 40 or 45° C., 30 minutes; FIGS. 1 and 2. As to the method: After 9.3 g of EDTA (product of Sigma Chemical Co., Ltd.) was dissolved in about 80 mL of deionized water, the resulting solution was adjusted to pH 8 with an about SN aqueous sodium hydroxide solution by using a pH meter. To the pH-adjusted solution, deionized water was added to give a total volume of 100 mL, whereby a 250 mM EDTA solution was prepared. The resulting solution was diluted with deionized water to prepare 10 to 100 mM EDTA solutions.
After 9.5 g of EGTA (product of Sigma Chemical Co., Ltd.) was dissolved in about 80 mL of deionized water, the resulting solution was adjusted to pH 8 with an about 5N aqueous sodium hydroxide solution by using a pH meter. To the pH-adjusted solution, deionized water was added to give a total volume of 100 mL, whereby a 250 mM EGTA solution was prepared. The resulting solution was diluted with deionized water to prepare 10 to 100 mM EGTA solutions.
In a test tube, 0.1 mL of the 10 mM EDTA solution, 0.2 mL of the 250 mM glycine sodium hydroxide buffer (pH 10) and 0.1 mL of deionized water were charged, followed by preliminary heating in a water bath of 45° C. for about 5 minutes. […] Thirty minutes later, a 0.1 mL portion of the resulting solution was added to 0.9 mL of the substrate solution preliminary heated in a water bath of 50° C. and the residual enzyme activity was measured in accordance with the amylase activity measuring method. […]

The nature of series [3]: Effects of metal salts (inhibition ratio). The class given is biochemical. As to conditions: pH 10, 30° C., 30 minutes; for inhibition ratio by Mn2+: 1 mM Mn2+. As to the method:
Each of them was treated at pH 10 and 30° C. for 30 minutes in the presence of various metal salts, whereby their effects were studied.

Series [4] is described as follows: Resisting performance against citric acid or zeolite (residual enzyme activity). In kind it is physicochemical. As to conditions: 0 to 0.5% trisodium citrate or synthetic zeolite A-3, pH 10, 40 or 45° C., 30 minutes; FIGS. 3 to 6. The protocol: To a 50 mM glycine sodium hydroxide buffer (pH 10) containing trisodium citrate dihydrate (guaranteed class product of Wako Pure Chemical Industries, Ltd.) or synthetic zeolite A-3 (product of Wako Pure Chemical Industries, Ltd.) having each of final concentrations of 0 to 0.5%, a purified enzyme properly diluted with a 10 mM glycine sodium hydroxide buffer (pH 10) was added, followed by treatment at each of predetermined temperatures (40° C. and 45° C.) for 30 minutes. The residual enzyme activity of the reaction mixture was measured in accordance with the amylase activity measuring method [with a 50 mM glycine sodium hydroxide buffer (pH 10)].

B1: Duramyl: amylase derived from Bacillus licheniformis, purified from a Novo product in granular form (protein, UniProt P06278 30-512, looked up)
Alpha-amylase: ANLNGTLMQYFEWYMPNDGQHWKRLQNDSAYLAEHGITAVWIPPAYKGTSQADVGYGAYDLYDLGEFHQKGTVRTKYGTKGELQSAIKSLHSRDINVYGDVVINHKGGADATEDVTAVEVDPADRNRVISGEHRIKAWTHFHFPGRGSTYSDFKWHWYHFDGTDWDESRKLNRIYKFQGKAWDWEVSNENGNYDYLMYADIDYDHPDVAAEIKRWGTWYANELQLDGFRLDAVKHIKFSFLRDWVNHVREKTGKEMFTVAEYWQNDLGALENYLNKTNFNHSVFDVPLHYQFHAASTQGGGYDMRKLLNSTVVSKHPLKAVTFVDNHDTQPGQSLESTVQTWFKPLAYAFILTRESGYPQVFYGDMYGTKGDSQREIPALKHKIEPILKARKQYAYGAQHDYFDHHDIVGWTREGDSSVANSGLAALITDGPGGAKRMYVGRQNAGETWHDITGNRSEPVVINSEGWGEFHVNGGSVSIYVQR
On to B1, for which the Specific activity in series [1] turned out to be 500 U/mg.

B2: K38: purified liquefying alkaline amylase obtained from strain Bacillus sp. KSM-K38 (FERM BP-6946); SEQ ID NO:4 (protein, listed as Bacillus sp.)
chain: MRRWVVAMLAVLFLFPSVVVADGLNGTMMQYYEWHLENDGQHWNRLHDDAAALSDAGITAIWIPPAYKGNSQADVGYGAYDLYDLGEFNQKGTVRTKYGTKAQLERAIGSLKSNDINVYGDVVMNHKMGADFTEAVQAVQVNPTNRWQDISGAYTIDAWTGFDFSGRNNAYSDFKWRWFHFNGVDWDQRYQENHIFRFANTNWNWRVDEENGNYDYLLGSNIDFSHPEVQDELKDWGSWFTDELDLDGYRLDAIKHIPFWYTSDWVRHQRNEADQDLFVVGEYWKDDVGALEFYLDEMNWEMSLFDVPLNYNFYRASQQGGSYDMRNILRGSLVEAHPMHAVTFVDNHDTQPGESLESWVADWFKPLAYATILTREGGYPNVFYGDYYGIPNDNISAKKDMIDELLDARQNYAYGTQHDYFDHWDVVGWTREGSSSRPNSGLATIMSNGPGGSKWMYVGRQNAGQTWTDLTGNNGASVTINGDGWGEFFTNGGSVSVYVNQ
Regarding B2, the “resisting performance against EDTA or EGTA (residual activity)” value in series [2] was “not influenced by highly concentrated EDTA or EGTA”. In addition, the “inhibition ratio by Cd2+ (K38 sentence)” value in series [3] (1 mM Cd2+) is “about 30%”. Further, in series [3], the “inhibition ratio by Mn2+” value is listed as “about 75%”. In addition, the “inhibition ratio by Sr2+” value in series [3] (1 mM Sr2+) is on record as “about 30%”. Also, in series [4], the “resisting performance against citric acid or zeolite (residual activity)” value was “influenced by neither citric acid nor zeolite”. The Specific activity in series [1] is recorded as 3600 U/mg.

B3: K36: purified liquefying alkaline amylase obtained from strain Bacillus sp. KSM-K36 (FERM BP-6945); SEQ ID NO:2 (protein, listed as Bacillus sp.)
chain: MKRWVVAMLAVLFLFPSVVVADGLNGTMMQYYEWHLENDGQHWNRLHDDAEALSNAGITAIWIPPAYKGNSQADVGYGAYDLYDLGEFNQKGTVRTKYGTKAQLERAIGSLKSNDINVYGDVVMNHKLGADFTEAVQAVQVNPSNRWQDISGVYTIDAWTGFDFPGRNNAYSDFKWRWFHFNGVDWDQRYQENHLFRFANTNWNWRVDEENGNYDYLLGSNIDFSHPEVQEELKDWGSWFTDELDLDGYRLDAIKHIPFWYTSDWVRHQRSEADQDLFVVGEYWKDDVGALEFYLDEMNWEMSLFDVPLNYNFYRASKQGGSYDMRNILRGSLVEAHPIHAVTFVDNHDTQPGESLESWVADWFKPLAYATILTREGGYPNVFYGDYYGIPNDNISAKKDMIDELLDARQNYAYGTQHDYFDHWDIVGWTREGTSSRPNSGLATIMSNGPGGSKWMYVGQQHAGQTWTDLTGNHAASVTINGDGWGEFFTNGGSVSVYVNQ
B3: the “resisting performance against EDTA or EGTA (residual activity)” value in series [2] is recorded as “not influenced by highly concentrated EDTA or EGTA”. Besides, in series [3], the “inhibition ratio by Mn2+” value is given as “about 95%”. For the same molecule, the “resisting performance against citric acid or zeolite (residual activity)” value in series [4] is recorded as “influenced by neither citric acid nor zeolite”. For the same molecule, the Specific activity in series [1] was 4300 U/mg.
